Measured values published in article PMC10584130, “Effects of HSP70 chaperones Ssa1 and Ssa2 on Ste5 scaffold and the mating mitogen-activated protein kinase (MAPK) pathway in Saccharomyces cerevisiae” (PLOS ONE, 2023).

Molecular target: T1, Ste5-Myc9 (S. cerevisiae, UniProt P32917 1-917)
T1 construct: Ste5 MAPK scaffold protein of S. cerevisiae; source: S. cerevisiae (EY1775 ste5 bar1; EY3136/EY3141), expressed from plasmids (pSKM19 2μ; pSKM90), in whole cell extract; not shown: Myc9, C-terminal, kept
T1 sequence (looked up): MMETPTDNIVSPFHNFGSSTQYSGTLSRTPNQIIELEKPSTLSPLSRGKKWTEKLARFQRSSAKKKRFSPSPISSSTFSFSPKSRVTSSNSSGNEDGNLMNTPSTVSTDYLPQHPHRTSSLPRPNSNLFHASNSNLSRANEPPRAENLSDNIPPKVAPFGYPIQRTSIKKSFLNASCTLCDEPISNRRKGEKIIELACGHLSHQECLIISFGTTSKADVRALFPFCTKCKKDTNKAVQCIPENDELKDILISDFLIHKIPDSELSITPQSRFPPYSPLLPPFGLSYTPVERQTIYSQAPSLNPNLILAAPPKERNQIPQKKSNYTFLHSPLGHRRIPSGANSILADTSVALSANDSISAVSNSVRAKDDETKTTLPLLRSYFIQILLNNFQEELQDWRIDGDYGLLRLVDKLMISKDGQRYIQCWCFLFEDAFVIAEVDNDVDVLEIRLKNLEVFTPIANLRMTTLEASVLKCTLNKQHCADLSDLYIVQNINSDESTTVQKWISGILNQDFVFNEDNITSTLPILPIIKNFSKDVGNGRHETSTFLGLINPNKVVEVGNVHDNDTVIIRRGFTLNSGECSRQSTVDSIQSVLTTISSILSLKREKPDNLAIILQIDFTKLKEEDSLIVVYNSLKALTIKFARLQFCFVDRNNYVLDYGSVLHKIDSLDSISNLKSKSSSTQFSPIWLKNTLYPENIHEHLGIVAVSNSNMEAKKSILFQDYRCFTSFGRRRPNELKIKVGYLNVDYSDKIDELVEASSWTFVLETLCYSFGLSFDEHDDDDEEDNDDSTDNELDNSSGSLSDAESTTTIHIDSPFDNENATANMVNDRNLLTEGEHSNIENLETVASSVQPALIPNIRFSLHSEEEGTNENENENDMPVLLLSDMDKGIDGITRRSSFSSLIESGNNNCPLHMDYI
Test: affinity purification with mass spectrometry; Ste5-Myc9 IP'd with 9E10 from 10 mg yeast whole cell extract (EY1775, cells without or with 50 nM α factor for 2 hours); 20 mM Tris-HCl pH 7.2, 125 mM potassium acetate, 0.1% Tween 20; Coomassie-stained SDS gel, 70 kDa band digested with trypsin, LC-MS/MS; ImageJ densitometry of the gel
Details: partners not purified

ratio Ste5-Myc9:70 kDa Hsp70 (Coomassie densitometry), with α factor: 0.67 | ratio Ste5-Myc9:70 kDa Hsp70 (Coomassie densitometry), without α factor: 1.45
B1: Hsp70 Ssa1 (endogenous) (natural protein)
chain: not shown
notes: Hsp70 chaperone Ssa1 of S. cerevisiae; also called 70 kDa protein; band a; source: endogenous, S. cerevisiae EY1775 whole cell extract
